Source: the supplement of paper PMC7125110
± gives the standard error. For part of these data: This sample holds only a part of the variants without activity.

B1: glmS ribozyme (parent)
chain: AUAAAAGCGCCAGAACUACAGAAAUGUAGUUGACGAGGAGGAGGUUUAUCGAAUUUUCGGCGGAUGCCUCCAAA

Key:
Conditions in all cases: with glucosamine-6-phosphate
[1] = variants of: B1; test: self-cleavage kobs at 40 uM GlcN6P; higher = faster cleavage; RNA array
Summary of the method: (§1)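 Glucosamine-6-phosphate, from 40 μM to 10 mM in HEPES/KCl/Mg(OAc)2 buffer, was flowed over sequenced MiSeq chips carrying barcoded ribozyme variants transcribed in situ by E. coli RNA polymerase. A hybridised Cy3 probe tracked the variants at 37 °C as tiles were imaged over ~14 h. kobs, kcat and KM were obtained by fitting normalised per-tile medians to exponential decays and then applying weighted Michaelis–Menten fits across concentrations.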

[2] = variants of: B1; test: self-cleavage kobs at 160 uM GlcN6P; higher = faster cleavage; RNA array
Summary of the method: as §1

[3] = variants of: B1; test: self-cleavage kobs at 640 uM GlcN6P; higher = faster cleavage; RNA array
Summary of the method: as §1

[4] = variants of: B1; test: self-cleavage kobs at 2500 uM GlcN6P; higher = faster cleavage; RNA array
Summary of the method: as §1

[5] = variants of: B1; test: self-cleavage kobs at 10000 uM GlcN6P; higher = faster cleavage; RNA array
Summary of the method: as §1

[6] = variants of: B1; test: KM; higher = weaker cofactor use; RNA array
Summary of the method: as §1

| Variant | self-cleavage kobs at 40 uM GlcN6P [1] [s⁻¹] | self-cleavage kobs at 160 uM GlcN6P [2] [s⁻¹] | self-cleavage kobs at 640 uM GlcN6P [3] [s⁻¹] | self-cleavage kobs at 2500 uM GlcN6P [4] [s⁻¹] | self-cleavage kobs at 10000 uM GlcN6P [5] [s⁻¹] | KM [6] [µM] |
| --- | --- | --- | --- | --- | --- | --- |
| G7A C50U | < 1e-05 | < 1e-05 | < 1e-05 | < 1e-05 | < 1e-05 |  |
| A6G G60A G62C | < 1e-05 |  |  |  |  |  |
| A6G G40U A48C G62A U65G | < 1e-05 |  |  |  | < 1e-05 |  |
| C8A C10A G44U U46A C67A | < 1e-05 |  |  | < 1e-05 |  |  |
| G7U G62U | < 1e-05 | < 1e-05 | < 1e-05 | < 1e-05 |  |  |
| C8A C50U G51C A53C U65A | < 1e-05 |  | < 1e-05 |  |  |  |
| A14U G35A |  |  |  |  |  | 6.51 ± 1.5 |
| A6U U30C U56C | < 1e-05 |  |  |  |  |  |
| A6U G9U | < 1e-05 | < 1e-05 | < 1e-05 | < 1e-05 |  |  |
| C8A G62C | < 1e-05 |  | < 1e-05 | < 1e-05 | < 1e-05 |  |
| G7U C8U | < 1e-05 | < 1e-05 | < 1e-05 | < 1e-05 | < 1e-05 |  |
| A6U G35U | < 1e-05 | < 1e-05 | < 1e-05 | < 1e-05 | < 1e-05 |  |
| G7U C10G A15U C34A G40U C58G G60C G63A | < 1e-05 |  | < 1e-05 |  | < 1e-05 |  |
| C8A U31A C50G A53U C70A | 0.000306 ± 7.3e-05 |  |  |  | 0.000515 ± 0.00016 |  |
| G7A G38C | < 1e-05 | < 1e-05 | < 1e-05 | < 1e-05 | < 1e-05 |  |
| G7U G38A A48G G60C | < 1e-05 |  |  |  | < 1e-05 |  |
| A6G G51C | < 1e-05 | < 1e-05 | < 1e-05 | < 1e-05 |  |  |
| G7A A12C A42C U49A G60C | < 1e-05 |  |  |  | < 1e-05 |  |
| G7C G29C | < 1e-05 |  | < 1e-05 | < 1e-05 | < 1e-05 |  |
| A6G G9C | < 1e-05 | < 1e-05 |  |  | < 1e-05 |  |
| G7A A12G U47A | < 1e-05 |  |  | < 1e-05 |  |  |
| G7U C8U C67U | < 1e-05 |  |  |  |  |  |
| A6U G35U A39G C71A | < 1e-05 |  |  |  | < 1e-05 |  |
